Laboratory results taken from article PMC8857485, “Prostate secretory protein 94 inhibits sterol binding and export by the mammalian CAP protein CRISP2 in a calcium-sensitive manner” (The Journal of Biological Chemistry, 2022).
Read-outs that look alike come from different tables or passages of the source.

How the values were obtained:
[1] = biological target: cholesterol sulfate; test: microscale thermophoresis; settings: measurements in triplicates
[2] = biological target: T1, prostate secretory protein of 94 amino acids (PSP94), C-terminal polyhistidine tag (human, UniProt P08118 21-114); test: MST
T1 chain: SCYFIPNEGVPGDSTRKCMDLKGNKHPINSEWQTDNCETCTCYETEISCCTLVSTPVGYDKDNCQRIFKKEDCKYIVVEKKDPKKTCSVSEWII

[3] = biological target: T1, prostate secretory protein of 94 amino …; test: MST
[4] = tested on: sterol export by CAP proteins (Pry1, CRISP2, CRISP3); test: In vivo sterol export assay ([14C]cholesteryl acetate export) in yeast; format: cell-based, Saccharomyces cerevisiae; settings: co-expression with CRISP2 in quadruple mutant yeast
Excerpt: To test whether expression of PSP94 would affect the function of Pry1 in sterol export, we expressed PSP94 fused to the N-terminal signal sequence from Pry1 (amino acids 1–19) from a constitutive alcohol dehydrogenase promoter (ADH1) to direct the protein into the yeast secretory pathway. This PSP94-containing plasmid was then transformed into heme-deficient yeast cells lacking the sterol deacetylase Say1 (hem1Δ say1Δ). This strain is able to take up radiolabeled [^14C]cholesterol, acetylate it in an alcohol acetyltransferase 2 (Atf2)-dependent pathway, and secrete the resulting radiolabeled cholesteryl acetate back into the culture medium ([29]). […] To test whether expression of PSP94 would affect the synthesis or secretion of Pry1, CRISP2, or CRISP3, we coexpressed FLAG-tagged PSP94 with hemagglutinin (HA)-tagged Pry1, CRISP2, or CRISP3, separated yeast cells from the culture medium, precipitated proteins from both fractions with trichloroacetic acid (TCA), and detected the tagged proteins by Western blotting.
The sterol export assay was performed as described ([29]). […] Extracted radiolabeled lipids were quantified by scintillation counting, and volumes corresponding to 10,000 cpm (counts per minute) were dried. […] TLC plates were then exposed to phosphorimager screens, and radiolabeled lipids were visualized and quantified using a phosphorimager. […]

[5] = cholesterol sulfate titrated (x axis Cholesterol sulfate [µM])

## CRISP2 (cysteine-rich secretory protein 2), C-terminal polyhistidine tag (from UniProt P16562) N97P; Y99P
[1]; [5]
  Kd: 2.7 µM

## CRISP2 (cysteine-rich secretory protein 2), C-terminal polyhistidine tag (from UniProt P16562) L98G; Y99P
[1]; in the presence of PSP94
  Kd: 0.5 µM
[1]; [5]
  Kd: 2.2 µM

## CRISP2 (cysteine-rich secretory protein 2), C-terminal polyhistidine tag (from UniProt P16562) N97P; L98G
[1]; [5]
  Kd: 3.8 µM

B1: CAP domain of Pry1 (Pry1^CAP), C-terminal polyhistidine tag (domain or fragment)
chain: SASSSDSDLSDFASSVLAEHNKKRALHKDTPALSWSDTLASYAQDYADNYDCSGTLTHSGGPYGENLALGYDGPAAVDAWYNEISNYDFSNPGFSSNTGHFTQVVWKSTTQVGCGIKTCGGAWGDYVICSYDPAGNYEGEYADNVEPLA
modifications: RED-tris-NTA fluorescent label on the His tag
[2]
  Kd: 63 nM

B2: CRISP3 (cysteine-rich secretory protein 3), C-terminal polyhistidine tag (natural protein)
chain: NEDKDPAFTALLTTQTQVQREIVNKHNELRRAVSPPARNMLKMEWNKEAAANAQKWANQCNYRHSNPKDRMTSLKCGENLYMSSASSSWSQAIQSWFDEYNDFDFGVGPKTPNAVVGHYTQVVWYSSYLVGCGNAYCPNQKVLKYYYVCQYCPAGNWANRLYVPYEQGAPCASCPDNCDDGLCTNGCKYEDLYSNCKSLKLTLTCKHQLVRDSCKASCNCSNSIY
modifications: RED-tris-NTA fluorescent label on the His tag
[2]
  Kd: 46 nM

B3: CRISP2 N97P L98G (protein)
chain: KDPAFTALLTTQLQVQREIVNKHNELRKAVSPPASNMLKMEWSREVTTNAQRWANKCTLQHSDPEDRKTSTRCGEPGYMSSDPTSWSSAIQSWYDEILDFVYGVGPKSPNAVVGHYTQLVWYSTYQVGCGIAYCPNQDSLKYYYVCQYCPAGNNMNRKNTPYQQGTPCAGCPDDCDKGLCTNSCQYQDLLSNCDSLKNTAGCEHELLKEKCKATCLCENKIY
modifications: limits not printed: mature chain by convention (pelB secretion in E. coli, C-terminal His tag left out); residue numbers match the precursor
[3]
  Kd: 4 nM

B4: PSP94^F24G: point mutant version of PSP94 (F24 corresponds to F4 in the processed protein), impaired binding to CRISP3 (protein)
chain: SCYGIPNEGVPGDSTRKCMDLKGNKHPINSEWQTDNCETCTCYETEISCCTLVSTPVGYDKDNCQRIFKKEDCKYIVVEKKDPKKTCSVSEWII
modifications: left off: polyhistidine, C-terminal, state not stated
[4]
  effect on sterol binding and export by CRISP2 in vivo: did not inhibit sterol binding and export
